{"source": "paper PMC8924901", "about": "(Journal of molecular biology, 2021)", "binders": {"B1": {"name": "rat PLCγ1 isolated split PH (sPH) domain (D485-N529/N865-R936 with a C-terminal 6X-His tag) (domain or fragment, UniProt P10686 485-529, looked up)", "chain": "DISNSIKNGILYLEDPVNHEWYPHYFVLTSSKIYYSEETSSDQGNNSPLGDLLRGVLDVPACQIAIRPEGKNNRLFVFSISMPSVAQWSLDVAADSQEELQDWVKKIREVAQTADAR"}}, "target": "T1, rat PLCγ1 isolated cSH2 domain (H663-E759) (rat, UniProt P10686 663-759)", "T1 sequence (looked up)": "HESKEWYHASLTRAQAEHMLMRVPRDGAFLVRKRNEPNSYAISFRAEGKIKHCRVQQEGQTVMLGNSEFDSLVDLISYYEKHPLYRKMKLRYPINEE", "assay": "NMR titration"}
{"binder": "B1", "values": [{"measurement": "binding result", "value": "binds"}]}
